Assay results as given in US20250382344A1, “Soluble GLP1/GIP/NPY2 Receptor Triple Agonists” (Boehringer Ingelheim International GmH, priority 2024, published 2025).
Where a chain is given by its changes, count along the chain named. *1 amine or outer side, *2 acyl side, *3 side chain or, on linkers, in order; H or OH if unused. Where no end group is shown, it is not given here. Side-chain parts run from the residue outwards. [ ]: non-standard residue; d: D form. The star is where a group is joined. γDab = gamma-linked diaminobutyric acid unit, O=C([C@H](CCN[*:1])N[*:3])[*:2]; C20 diacid = O=C(O)CCCCCCCCCCCCCCCCCCC(=O)*; C18 diacid = O=C(O)CCCCCCCCCCCCCCCCC(=O)*; γGlu = O=C(O)[C@H](CCC(=O)[*:2])N[*:1]; εLys = N[C@@H](CCCCN[*:1])C(=O)[*:2]; dtOrn = not defined here; Aib = CC(C)(N)C(=O)O

T1: human neuropeptide Y2 receptor (human, UniProt P49146 1-381)
T1 sequence (looked up): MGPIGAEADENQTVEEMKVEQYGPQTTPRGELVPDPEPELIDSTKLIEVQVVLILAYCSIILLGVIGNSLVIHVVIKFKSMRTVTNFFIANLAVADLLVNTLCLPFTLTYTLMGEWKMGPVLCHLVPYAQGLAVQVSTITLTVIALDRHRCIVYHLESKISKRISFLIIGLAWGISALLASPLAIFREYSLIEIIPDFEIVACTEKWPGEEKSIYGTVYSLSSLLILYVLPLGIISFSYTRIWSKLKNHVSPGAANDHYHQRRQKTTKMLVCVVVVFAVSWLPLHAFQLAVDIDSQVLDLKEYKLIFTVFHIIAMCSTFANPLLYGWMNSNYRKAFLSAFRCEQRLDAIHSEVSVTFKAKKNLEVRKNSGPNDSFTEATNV

T2: human GIP receptor (human, UniProt P48546 22-466)
T2 sequence (looked up): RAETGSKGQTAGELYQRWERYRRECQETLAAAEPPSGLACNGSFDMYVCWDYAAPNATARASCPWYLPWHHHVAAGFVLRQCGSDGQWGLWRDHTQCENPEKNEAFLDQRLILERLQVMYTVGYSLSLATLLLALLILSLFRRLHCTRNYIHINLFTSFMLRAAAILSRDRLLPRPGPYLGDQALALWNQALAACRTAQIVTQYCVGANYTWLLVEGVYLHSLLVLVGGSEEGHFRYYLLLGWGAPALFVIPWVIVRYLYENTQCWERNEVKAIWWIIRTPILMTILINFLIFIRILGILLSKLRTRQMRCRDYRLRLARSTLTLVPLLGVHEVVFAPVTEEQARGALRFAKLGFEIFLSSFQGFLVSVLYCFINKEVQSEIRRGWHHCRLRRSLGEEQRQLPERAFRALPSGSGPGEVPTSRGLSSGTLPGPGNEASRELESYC

B1: Compound 97 (peptide)
peptide: Y[Aib]EGTFTSDYSI[Aib]LEKQAQ[Aib]AFVRHLINK([dtOrn-γGlu-γGlu-γGlu-γGlu-γGlu-γGlu-C20 diacid])[Aib]TRQRY-NH2
modifications: reading uncertain
B2: Compound 88 (peptide)
peptide: YXEGTFTSDYSIXLEKQAQXAFIRHLINKXTRQRY
modifications: Aib at 2, 13, 20, 30; Lys29 epsilon-amino: C18DA-gGlu-gGlu-gGlu-gGlu-gGlu-gGlu-eLys; C-terminal amide
B3: Compound 91 (peptide)
peptide: B2 peptide with A18R, I23V
modifications: Aib at 2, 13, 20, 30; Lys29 epsilon-amino: C18DA-gGlu-gGlu-gGlu-gGlu-gGlu-gGlu-eLys; C-terminal amide
B4: Compound 103 (peptide)
peptide: B2 peptide with Q19E, I23V
modifications: Aib at 2, 20, 30; aMeL at 13; Lys29 epsilon-amino: C20DA-gGlu-gGlu-gGlu-gGlu-gGlu-gGlu-eLys; C-terminal amide
B5: Compound 111 (peptide)
peptide: B2 peptide with Q19A, I23V
modifications: Aib at 2, 13, 20, 30; Lys29 epsilon-amino: C18DA-gGlu-gGlu-gGlu-gGlu-gGlu-gGlu-eLys; C-terminal amide
B6: Compound 149 (peptide)
peptide: B2 peptide with A21E, I23V
modifications: Aib at 2, 13, 20, 30; Lys29 epsilon-amino: C20DA-gGlu-gGlu-gGlu-gGlu-gGlu-gGlu-eLys; C-terminal amide
B7: Compound 145 (peptide)
peptide: B2 peptide with A21E, I23V
modifications: Aib at 2, 13, 20, 30; Lys29 epsilon-amino: C18DA-gGlu-gGlu-gGlu-gGlu-gGlu-gGlu-eLys; C-terminal amide
B8: Compound 104 (peptide)
peptide: B2 peptide with Q19E, I23V
modifications: Aib at 2, 13, 20, 30; Lys29 epsilon-amino: C20DA-gGlu-gGlu-gGlu-gGlu-gGlu-gGlu-eLys; C-terminal amide
B9: Compound 160 (peptide)
peptide: B2 peptide with X13E, I23V
modifications: Aib at 2, 20, 30; Lys29 epsilon-amino: C18DA-gGlu-gGlu-gGlu-gGlu-gGlu-gGlu-eLys; C-terminal amide
B10: Compound 96 (peptide)
peptide: B2 peptide with I23V, R34X
modifications: Aib at 2, 13, 20, 30; dOR at 34; Lys29 epsilon-amino: C18DA-gGlu-gGlu-gGlu-gGlu-gGlu; C-terminal amide
B11: Compound 146 (peptide)
peptide: B2 peptide with I23V, R34X
modifications: Aib at 2, 13, 20, 30; bhArg at 34; Lys29 epsilon-amino: C18DA-gGlu-gGlu-gGlu-gGlu-gGlu-gGlu-eLys; C-terminal amide
B12: Compound 115 (peptide)
peptide: B2 peptide with Y10L, I23V, I27L
modifications: Aib at 2, 13, 20, 30; Lys29 epsilon-amino: C20DA-gGlu-gGlu-gGlu-gGlu-gGlu-gGlu-eLys; C-terminal amide
B13: Compound 105 (peptide)
peptide: B2 peptide with E15D, I23V
modifications: Aib at 2, 13, 20, 30; Lys29 epsilon-amino: C18DA-gGlu-gGlu-gGlu-gGlu-gGlu-gGlu-eLys; C-terminal amide
B14: Compound 120 (peptide)
peptide: Y[Aib]EGTFTSDYSI[Aib]LEKQAQ[Aib]AFVRHLINK([γDab-γGlu-γGlu-γGlu-γGlu-γGlu-γGlu-C18 diacid])[Aib]TRQRY-NH2
B15: Compound 166 (peptide)
peptide: Y[Aib]EGTFTSDLSI[Aib]LEKQAQ[Aib]AFVRHLINK([γGlu-γGlu-εLys-γGlu-γGlu-γGlu-γGlu-C20 diacid])[Aib]TRQRY-NH2
B16: Compound 100 (peptide)
peptide: Y[Aib]EGTFTSDYSI[Aib]LEKEAQ[Aib]EFVRHLINK([γGlu-γGlu-γGlu-γGlu-C18 diacid])[Aib]TRQRY-NH2
modifications: N-terminus assumed
SMILES: CC[C@H](C)[C@H](NC(=O)[C@H](CC(C)C)NC(=O)[C@H](Cc1c[nH]cn1)NC(=O)[C@H](CCCNC(=N)N)NC(=O)[C@@H](NC(=O)[C@H](Cc1ccccc1)NC(=O)[C@H](CCC(=O)O)NC(=O)C(C)(C)NC(=O)[C@H](CCC(N)=O)NC(=O)[C@H](C)NC(=O)[C@H](CCC(=O)O)NC(=O)[C@H](CCCCN)NC(=O)[C@H](CCC(=O)O)NC(=O)[C@H](CC(C)C)NC(=O)C(C)(C)NC(=O)[C@@H](NC(=O)[C@H](CO)NC(=O)[C@H](Cc1ccc(O)cc1)NC(=O)[C@H](CC(=O)O)NC(=O)[C@H](CO)NC(=O)[C@@H](NC(=O)[C@H](Cc1ccccc1)NC(=O)[C@@H](NC(=O)CNC(=O)[C@H](CCC(=O)O)NC(=O)C(C)(C)NC(=O)[C@@H](N)Cc1ccc(O)cc1)[C@@H](C)O)[C@@H](C)O)[C@@H](C)CC)C(C)C)C(=O)N[C@@H](CC(N)=O)C(=O)N[C@@H](CCCCNC(=O)CC[C@H](NC(=O)CC[C@H](NC(=O)CC[C@H](NC(=O)CC[C@H](NC(=O)CCCCCCCCCCCCCCCCC(=O)O)C(=O)O)C(=O)O)C(=O)O)C(=O)O)C(=O)NC(C)(C)C(=O)N[C@H](C(=O)N[C@@H](CCCNC(=N)N)C(=O)N[C@@H](CCC(N)=O)C(=O)N[C@@H](CCCNC(=N)N)C(=O)N[C@@H](Cc1ccc(O)cc1)C(N)=O)[C@@H](C)O
B17: Compound 164 (peptide)
peptide: B2 peptide with Q17E, I23V
modifications: Aib at 2, 13, 20, 30; Lys29 epsilon-amino: C18DA-gGlu-gGlu-gGlu-gGlu-gGlu-gGlu-eLys; C-terminal amide
B18: Compound 124 (peptide)
peptide: B2 peptide with K16R, I23V
modifications: Aib at 2, 13, 20, 30; Lys29 epsilon-amino: C18DA-gGlu-gGlu-gGlu-gGlu-gGlu-gGlu-eLys; C-terminal amide
B19: Compound 89 (peptide)
peptide: B2 peptide with K16E, I23V
modifications: Aib at 2, 20, 30; aMeL at 13; Lys29 epsilon-amino: C20DA-gGlu-gGlu-gGlu-gGlu-gGlu-gGlu-eLys; C-terminal amide
B20: Compound 128 (peptide)
peptide: B2 peptide with I23V, H25A
modifications: Aib at 2, 13, 20, 30; Lys29 epsilon-amino: C18DA-gGlu-gGlu-gGlu-gGlu-gGlu-gGlu-eLys; C-terminal amide
B21: Compound 101 (peptide)
peptide: B2 peptide with I23V
modifications: Aib at 2, 13, 20, 30; Lys29 epsilon-amino: C20DA-gGlu-gGlu-gGlu-gGlu-gGlu-gGlu-gGlu; C-terminal amide
B22: Compound 90 (peptide)
peptide: B2 peptide with I23V, R34X
modifications: Aib at 2, 13, 20, 30; dOR at 34; Lys29 epsilon-amino: C18DA-gGlu-gGlu-gGlu-gGlu-gGlu-gGlu-eLys; C-terminal amide
B23: Compound 109 (peptide)
peptide: B2 peptide
modifications: Aib at 2, 13, 20, 30; Lys29 epsilon-amino: C20DA-gGlu-gGlu-gGlu-gGlu-gGlu-gGlu-eLys; C-terminal amide
B24: Compound 116 (peptide)
peptide: B2 peptide with I23V
modifications: Aib at 2, 13, 20, 30; NMeY at 35; Lys29 epsilon-amino: C18DA-gGlu-gGlu-gGlu-gGlu-gGlu-gGlu-eLys; C-terminal amide

What follows are binders tested against T1, human neuropeptide Y2 receptor (assay: cell-based or functional assay).

| Binder | EC50, CreLuc reporter, 0.5% hP | EC50, CreLuc reporter, 100% hP |
| --- | --- | --- |
| B1 | 11.7 nM | 135 nM |
| B2 | – | 30.9 nM |
| B3 | 9.7 nM | 45.2 nM |
| B4 | 25.9 nM | 131 nM |
| B5 | 53.6 nM | 77.4 nM |
| B6 | – | 166 nM |
| B7 | – | 94.2 nM |
| B8 | 17.5 nM | 129 nM |
| B9 | 15.5 nM | 28.5 nM |
| B10 | 23 nM | 125 nM |
| B11 | 51.5 nM | 89.8 nM |
| B12 | 10.1 nM | 107 nM |
| B13 | 19.9 nM | 49.6 nM |
| B14 | 23.9 nM | – |

What follows are binders tested against human GLP-1 receptor (human, UniProt P43220 24-463) (assay: cell-based or functional assay).

| Binder | EC50, CreLuc reporter, 0.5% hP | EC50, CreLuc reporter, 100% hP |
| --- | --- | --- |
| B15 | 8 nM | – |
| B16 | 0.2 nM | – |
| B1 | 3.8 nM | 16.8 nM |
| B2 | 0.2 nM | 1.8 nM |
| B17 | 0.6 nM | – |
| B18 | 0.5 nM | – |
| B3 | – | 13.7 nM |
| B19 | 0.2 nM | 1.7 nM |
| B4 | 0.4 nM | 0.6 nM |
| B5 | 4.7 nM | 6.1 nM |
| B6 | – | 3.3 nM |
| B20 | 0.7 nM | 4 nM |
| B7 | 0.5 nM | 1.8 nM |
| B8 | 2 nM | 12.9 nM |
| B9 | 7.1 nM | 27 nM |
| B10 | 0.9 nM | 1.7 nM |
| B21 | – | 20 nM |
| B22 | 2 nM | – |
| B11 | 1 nM | – |
| B23 | 0.8 nM | – |
| B12 | 7 nM | 9.8 nM |
| B13 | 0.3 nM | 3.4 nM |
| B24 | 2 nM | – |
| B14 | – | 4 nM |

The binders below were run against T2, human GIP receptor (assay: cell-based or functional assay).

| Binder | EC50, CreLuc reporter, 0.5% hP | EC50, CreLuc reporter, 100% hP |
| --- | --- | --- |
| B15 | 0.6 nM | – |
| B16 | 0.5 nM | – |
| B1 | – | 12.7 nM |
| B2 | 0.1 nM | 1.7 nM |
| B17 | 0.4 nM | – |
| B18 | 0.1 nM | 4 nM |
| B3 | 0.8 nM | 14.4 nM |
| B19 | – | 0.9 nM |
| B20 | 0.2 nM | 5.7 nM |
| B10 | 0.3 nM | 1.7 nM |
| B21 | 1 nM | – |
| B22 | – | 0.6 nM |
| B23 | 0.3 nM | – |
| B24 | – | 3.4 nM |
